Measured values: the supplement of paper PMC10567573
± gives the standard deviation.

Test: protein stability index of a GFP-peptide fusion (GPS, HEK-293T) (PSI 1-6); higher = more stable
Conditions: c terminus: a fixed tail appended
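Also: 24-mer peptide tiles fused after GFP, lentivirally expressed, FACS-sorted into six equal bins by GFP/DsRed ratio, decoded by Illumina sequencing, PSI is the read-weighted mean bin number.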

Sequence	protein stability index (treatment: DMSO)	protein stability index (treatment: MLN4924 1 uM, 8 h)
MAPPAAPGRDRVGREDEDGWETRG [HES6]	5.2 ± 0.37	5.48 ± 0.16
MAQQQMTSSQKALMLELKSLQEEP [UBE2R2]	4.33 ± 0.28	4.29 ± 0.24
MATSELSCEVSEENCERREAFWAE [TCAP]	5.07 ± 0.079	5.08 ± 0.32
MAVAFLSAQRSKDPNSQVGACIVN [DCTD]	2.01 ± 0.16	2.27 ± 0.25
MDAAPGVDLSRILNEMRDQYEKMA [KRT17]	3.82 ± 0.18	3.8 ± 0.17
MDGRMEAATRGGSHLQAAAQTPPR [SCNN1D]	4.92 ± 0.39	4.93 ± 0.061
MDTSHQPLLPAPPKTPMDGADCGI [LYSMD4]	5.04 ± 0.2	5.09 ± 0.33
MEGLEENGGVVQVGELLPCKICGR [ZC2HC1A]	4.13 ± 0.21	4.26 ± 0.48
MERPQPDSMPQDLSEALKEATKEV [HMOX1]	5.44 ± 0.25	5.43 ± 0.22
MERSPDVSPGPSRSFKEELLCAVC [TRIM35]	3.47 ± 0.18	3.6 ± 0.25
MFQGWNCGDYFPDGITNGASWYSL [CPN1]	2.7 ± 0.37	2.31 ± 0.45
MFRNHLCLVFELLSYNLYDLLRNT [DYRK1B]	2.54 ± 0.23	2.85 ± 0.72
MGKLLQQPNTYADFEFLAFWQTQY [PKD2L1]	2.21 ± 0.56	2.27 ± 0.23
MHPGRTTGKGPSTHTQIDQQPPRL [M1AP]	4.45 ± 0.1	4.511 ± 0.026
MKLEKEEFVTLKAIALANSDSMHI [ESRRG]	2.46 ± 0.22	2.48 ± 0.28
MLELRHRGSCPGPREAVSPPHREG [CDS1]	4.26 ± 0.29	4.39 ± 0.29
MMPLAEAGALAQGGGPSATEWACI [C6orf223]	3.65 ± 0.34	3.52 ± 0.25
MMRMFSENLAHHLEIDSGVITLDP [TRIM15]	2.52 ± 0.16	2.69 ± 0.37
MMVRQMKEDAKGKSEEELAECFRI [TNNC2]		4.3 ± 0.52
MMYSAELWRYRTITFSGRPSRVHA [FBXO39]	2.23 ± 0.091	2.46 ± 0.2
MNIIELEIPDQNIDVEALQVAFGS [GMCL1]	2.86 ± 0.31	2.73 ± 0.072
MPLREGSSFQDLLGDALAGPPRAP [HES6]	3.86 ± 0.34	4.05 ± 0.4
MQAEAEAASVRMRGEAEAFAIGAR [FLOT1]	4.62 ± 0.31	4.75 ± 0.31

Sequence	protein stability index (treatment: DMSO)	protein stability index (treatment: MLN4924 1 uM, 8 h)
MQCPVIAVNSGGPLESIDHSVTGF [ALG2]	2.83 ± 0.42	3.26 ± 0.3
MSHAAEPARDGVEASAEGPRAVFV [TFE3]	4.62 ± 0.13	4.86 ± 0.09
MSRMINKYKRRRFQKTKNLLTGET [CLPTM1]	3.05 ± 0.32	3.26 ± 0.35
MSYSCCLPSLGCRTSCSSRPCVPP [KRT34]	2.22 ± 0.17	2.37 ± 0.4
MTGAYNNFFRMFDRNTKRDVTLEA [PPP2R2C]	3.03 ± 0.45	3.14 ± 0.33
MVERRGPGRPRTDGENVFTGQSKI [KMT5A]	4.19 ± 0.36	
MYFSQEEWELLDPTQKALYNDVMQ [ZNF75A]	3.67 ± 0.08	3.74 ± 0.33
MYSEIQRERADIGGLMARPEYREW [FAM107A]	2.93 ± 0.26	2.92 ± 0.42
NARGASIFSVTALDPDSKENAQII [PCDHGA10]	3.75 ± 0.12	3.97 ± 0.24
NDGWTPLHVAAHYGRDSFVRLLLE [ASB7]	2.45 ± 0.18	2.59 ± 0.27
NDRVQTIITQLEDSRRVTKENSHQ [TRIM63]	4.99 ± 0.23	4.92 ± 0.13
NDTAGPELPDPLGGLLDEAMLDEI [NFE2L1]	5.22 ± 0.41	5.6 ± 0.13
NEIQCTGNEKSIIDCKFNAESQGC [LOXL2]	4.88 ± 0.36	4.79 ± 0.58
NELTLNEKNFFPEYNYDWWEKKPF [CHGB]	2.73 ± 0.24	3 ± 0.35
NENPNNFQILLLSDPSTIEASNFQ [PNLIPRP1]	3.33 ± 0.36	3.44 ± 0.5
NFLIGRQGNKKEHVIHIIDFGLAK [CSNK1G1]	2.45 ± 0.66	1.89 ± 0.39
NFNPLLVAGGVAVAAIALILGVAF [CEND1]	3.24 ± 0.27	3.47 ± 0.22
NGFGLVEDSAQNCFALIPKAPKKD [EFHC1]	4.75 ± 0.34	4.74 ± 0.13
NHSLETCETTLFALRMATWNQILD [PTGFR]	2.25 ± 0.52	2 ± 0.27
NIPERASGPEGNLNQIVTEPDANF [FAM104B]	5.35 ± 0.15	5.23 ± 0.47
NITRLQLETEIEALKEELLFMKKN [KRT18]	2.82 ± 0.091	3.05 ± 0.51
NKFASFIDKVRFLEQQNQVLETKW [KRT71]	2.58 ± 0.42	2.49 ± 0.4
